From paper PMC3448007

Target: NKX2.5 homeodomain (C56S) (Homo sapiens, UniProt P52952 137-197, C193S)
Experiment: crystal structure

NKX2.5 homeodomain (C56S), sequence (P52952 137-197 C193S): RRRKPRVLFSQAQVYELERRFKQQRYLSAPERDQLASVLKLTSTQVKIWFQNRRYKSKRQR

B1: ANF-242 19-bp (dsDNA)
DNA 1: TGAAGTGGGGGCCACTTGA
DNA 2: TCAAGTGGCCCCCACTTCA
binding result: binds
